The assay concerns the target SIINFEKL:K^b complex (SIINFEKL complexed to H-2K^b) on LK^b cells (murine) (UniProt P01901). The experiment in a line: cell-based or functional assay.

The values that follow come from patent publication US20140341938A1.

Sequence of UniProt P01901 (P01901 22-369, one chain of several): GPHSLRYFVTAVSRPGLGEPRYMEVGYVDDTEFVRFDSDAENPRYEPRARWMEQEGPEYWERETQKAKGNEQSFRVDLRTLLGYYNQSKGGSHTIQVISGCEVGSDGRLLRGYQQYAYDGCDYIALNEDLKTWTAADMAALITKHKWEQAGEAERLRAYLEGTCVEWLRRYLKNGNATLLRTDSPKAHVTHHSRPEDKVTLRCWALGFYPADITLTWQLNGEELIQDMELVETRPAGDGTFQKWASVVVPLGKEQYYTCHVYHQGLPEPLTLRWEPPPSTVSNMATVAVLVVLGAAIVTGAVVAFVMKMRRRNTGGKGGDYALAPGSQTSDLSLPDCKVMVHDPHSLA

Consider “T cell receptor of the SIINFEKL:Kb-specific T hybridoma B3Z (TCR)”, for which the β-galactosidase measured with a luminescent substrate after overnight co-incubation of SIINFEKL-pulsed LK^b cells with B3Z; limit of detection given as the peptide pulse concentration was found to be 5 ng/mL.
